Source: patent US20230140868A1, “COMPOSITIONS AND METHODS FOR TREATING CANCER” (Alpha Beta Holdings, LLC, priority 2020, published 2023)

What was measured:
integrin αvβ3 = integrin αvβ3 (Homo sapiens, UniProt P05106+P06756); assay: In vitro cell adhesion assay on fibrinogen (FIG. 8); assay type: cell-based
Method: (§1) Antibody affinity is evaluated using an in vitro cell adhesion assay. 48 well tissue culture plates were coated with the integrin avβ3 ligand fibrinogen or the integrin β1 ligand type I collagen, and 2000-10000 cells were added in the presence of each antibody for a range of 2-fold dilutions starting at 5 μg/mL in duplicate. Plates were washed at the endpoint and cells attached to the substrate detected using crystal violet.
(§2) Each antibody was tested for its ability to prevent the adhesion of integrin αvβ3-expressing tumor cells to the αvβ3-mediated adhesion to fibrinogen as well as the β1-integrin mediated adhesion to type I collagen.

[1] = tested on: αvβ3-expressing human lung cancer cells; assay: In vitro ADCC, human NK cells as effector cells (FIG. 10B); assay type: cell-based; details: increasing E:T
Description: (A) In vitro ADCC for primary human monocyte-derived macrophages as effector cells. (B). In vitro ADCC for human NK cells as effector cells. Graphs show effect of increasing effector-to-target ratio (E:T) on death of αvβ3-expressing human lung cancer cells.
This distinction could produce a therapeutic advantage by achieving matching between the antigen (integrin αvβ3) and the types of effector cells that are particularly enriched in αvβ3-expressing tumors, such as macrophages.

human FcγRIII = assay: Promega ADCC Reporter Bioassay, FcγRIII (FIG. 7); assay type: cell-based; details: target cells: integrin avβ3-expressing human pancreatic cancer cells; Raji effector line with NFAT-induced luciferase
Method: (§3) Integrin avβ3-expressing human pancreatic cancer cells were utilized as “target cells” to assess the ability of anti-avβ3 antibodies to elicit effector cell activation using a Promega ADCC Reporter Bioassay in which “effector cell” activation is evaluated using a Raji cell line stably expressing the human FcγR I or III and NFAT-induced luciferase. Six antibody dilutions were tested per antibody, with FcγR activation shown as fold change relative to treatment with assay buffer containing no antibody.
(§4) Whereas NK cells utilize only FcγRIII/CD16 to engage antibody Fc regions, macrophages can utilize FcγRI/CD64.

integrin β1 = integrin β1 (Homo sapiens, UniProt P05556); assay: In vitro cell adhesion assay on type I collagen (FIG. 8); assay type: cell-based; set-up: endogenous in cells; details: 2-fold dilutions starting at 5 μg/mL
integrin β1, sequence (P05556 21-798): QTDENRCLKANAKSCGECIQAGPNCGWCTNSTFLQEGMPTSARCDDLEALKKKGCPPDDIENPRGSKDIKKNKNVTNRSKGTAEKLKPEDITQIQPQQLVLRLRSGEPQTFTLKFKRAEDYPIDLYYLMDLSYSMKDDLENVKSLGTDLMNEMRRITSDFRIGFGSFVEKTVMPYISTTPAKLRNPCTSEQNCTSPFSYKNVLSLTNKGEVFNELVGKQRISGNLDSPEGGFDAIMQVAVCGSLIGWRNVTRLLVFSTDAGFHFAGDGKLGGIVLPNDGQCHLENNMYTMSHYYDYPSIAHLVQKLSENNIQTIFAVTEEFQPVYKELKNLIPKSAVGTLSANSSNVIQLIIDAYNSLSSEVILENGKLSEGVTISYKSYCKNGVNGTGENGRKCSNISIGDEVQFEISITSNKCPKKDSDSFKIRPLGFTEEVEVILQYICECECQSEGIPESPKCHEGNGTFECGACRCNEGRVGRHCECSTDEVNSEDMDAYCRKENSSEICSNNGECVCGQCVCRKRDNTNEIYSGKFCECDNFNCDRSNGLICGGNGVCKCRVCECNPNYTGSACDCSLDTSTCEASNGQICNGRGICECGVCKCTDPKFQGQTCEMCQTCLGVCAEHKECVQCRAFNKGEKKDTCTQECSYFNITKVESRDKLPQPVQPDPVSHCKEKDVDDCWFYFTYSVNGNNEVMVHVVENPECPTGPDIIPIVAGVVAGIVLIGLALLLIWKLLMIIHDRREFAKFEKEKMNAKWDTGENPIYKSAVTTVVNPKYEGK
Method: as §1, §2

human FcγRI = biological target: T1, human FcγRI (Homo sapiens, UniProt P12314); assay: Promega ADCC Reporter Bioassay, FcγRI (FIG. 7); assay type: cell-based; details: target cells: integrin avβ3-expressing human pancreatic cancer cells; Raji effector line with NFAT-induced luciferase
T1 construct: host or cells: Raji cell line (so in the source), stably expressing the receptor and NFAT-induced luciferase
T1 sequence (P12314 16-374): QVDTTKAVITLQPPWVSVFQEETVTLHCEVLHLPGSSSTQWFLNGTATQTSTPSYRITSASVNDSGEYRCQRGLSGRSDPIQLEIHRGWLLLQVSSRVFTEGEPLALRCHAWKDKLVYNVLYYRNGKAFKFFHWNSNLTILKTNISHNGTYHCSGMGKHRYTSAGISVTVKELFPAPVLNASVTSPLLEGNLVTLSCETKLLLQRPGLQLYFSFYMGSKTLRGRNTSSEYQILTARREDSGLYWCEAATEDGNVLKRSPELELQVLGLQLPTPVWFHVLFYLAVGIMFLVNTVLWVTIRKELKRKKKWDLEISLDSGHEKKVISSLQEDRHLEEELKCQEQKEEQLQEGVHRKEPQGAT
Method: as §3, §4

[2] = tested on: HCC827 αvβ3-negative human EGFR mutant lung cancer cells; assay: HCC827 xenograft, delay of onset of erlotinib resistance; assay type: in vivo, nu/nu mice; details: erlotinib alone, oral, 6.25 mg/kg, six times/week
Method: Briefly, HCC827 (5×10^6 tumor cells in 100 μl of PBS) αvβ3-negative human EGFR mutant lung cancer cells were subcutaneously injected to the right flank of female nu/nu mice (Charles River, 088, 8-10 weeks old). Tumors were measured with calipers twice per week. […] Tumors were placed into liquid nitrogen, OCT compound, or 10% formalin.

integrin αvβ3, sequence (P06756 31-889 limits assumed): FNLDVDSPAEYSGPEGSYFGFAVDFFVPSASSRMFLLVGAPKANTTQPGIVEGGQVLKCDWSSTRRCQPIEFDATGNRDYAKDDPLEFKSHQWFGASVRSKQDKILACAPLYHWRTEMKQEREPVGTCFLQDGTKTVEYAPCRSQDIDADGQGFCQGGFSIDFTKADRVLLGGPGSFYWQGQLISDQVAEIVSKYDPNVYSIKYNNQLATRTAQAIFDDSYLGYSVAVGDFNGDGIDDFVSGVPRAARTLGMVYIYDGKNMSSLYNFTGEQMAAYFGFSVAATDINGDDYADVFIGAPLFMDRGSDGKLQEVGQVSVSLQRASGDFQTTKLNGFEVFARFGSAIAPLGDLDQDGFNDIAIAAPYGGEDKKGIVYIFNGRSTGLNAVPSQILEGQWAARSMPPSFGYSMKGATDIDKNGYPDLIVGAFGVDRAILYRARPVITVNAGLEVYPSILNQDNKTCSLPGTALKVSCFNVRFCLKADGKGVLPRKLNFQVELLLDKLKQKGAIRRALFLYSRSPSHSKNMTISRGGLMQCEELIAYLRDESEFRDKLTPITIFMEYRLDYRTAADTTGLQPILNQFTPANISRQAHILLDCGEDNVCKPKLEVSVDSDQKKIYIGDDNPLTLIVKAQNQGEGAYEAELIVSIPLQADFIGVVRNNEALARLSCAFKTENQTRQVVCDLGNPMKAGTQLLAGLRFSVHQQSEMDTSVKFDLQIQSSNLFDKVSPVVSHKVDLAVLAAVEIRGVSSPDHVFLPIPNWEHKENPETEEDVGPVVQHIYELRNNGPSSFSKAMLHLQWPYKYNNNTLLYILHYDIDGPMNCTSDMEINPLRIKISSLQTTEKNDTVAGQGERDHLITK
integrin αvβ3, sequence (P06756 891-1048 limits assumed): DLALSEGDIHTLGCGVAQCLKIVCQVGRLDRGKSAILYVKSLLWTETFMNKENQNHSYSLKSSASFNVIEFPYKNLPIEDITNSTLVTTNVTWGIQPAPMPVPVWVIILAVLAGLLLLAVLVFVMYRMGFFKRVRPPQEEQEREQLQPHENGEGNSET
integrin αvβ3, sequence (P05106 27-788): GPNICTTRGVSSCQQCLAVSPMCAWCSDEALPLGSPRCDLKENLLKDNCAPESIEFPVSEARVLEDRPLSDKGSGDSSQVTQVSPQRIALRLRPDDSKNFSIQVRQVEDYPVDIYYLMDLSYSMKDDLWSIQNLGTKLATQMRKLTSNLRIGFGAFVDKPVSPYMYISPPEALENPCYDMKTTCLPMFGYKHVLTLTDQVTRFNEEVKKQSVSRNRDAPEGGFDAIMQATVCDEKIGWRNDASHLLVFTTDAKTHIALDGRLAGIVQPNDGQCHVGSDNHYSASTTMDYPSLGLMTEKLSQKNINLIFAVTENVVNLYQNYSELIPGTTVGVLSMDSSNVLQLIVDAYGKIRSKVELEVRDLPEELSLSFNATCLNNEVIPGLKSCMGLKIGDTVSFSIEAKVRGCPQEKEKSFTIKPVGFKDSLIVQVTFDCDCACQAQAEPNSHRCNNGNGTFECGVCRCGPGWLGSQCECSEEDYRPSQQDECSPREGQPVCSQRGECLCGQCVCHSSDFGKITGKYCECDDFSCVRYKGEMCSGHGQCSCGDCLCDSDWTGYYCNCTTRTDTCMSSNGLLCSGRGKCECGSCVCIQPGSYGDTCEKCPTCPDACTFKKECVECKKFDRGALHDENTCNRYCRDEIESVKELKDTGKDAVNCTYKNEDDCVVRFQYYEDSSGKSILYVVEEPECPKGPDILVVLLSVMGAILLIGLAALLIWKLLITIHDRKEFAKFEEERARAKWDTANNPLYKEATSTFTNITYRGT

hLM609-hIgG1: humanized LM609, hIgG1 isotype (etaracizumab/Vitaxin); heavy chain SEQ ID NO:9, light chain SEQ ID NO:10 [reference compound]
αvβ3-mediated adhesion to fibrinogen (integrin αvβ3; 2-fold dilutions starting at 5 μg/mL): blocked adhesion to fibrinogen | antibody affinity, shown by ability to block αvβ3-dependent cell adhesion (integrin αvβ3; comparison of isotype variants): equivalent | ADCC with human NK cells as effector cells [1]: engages NK cells | FcγRIII activation on effector cells (human FcγRIII): can strongly activate FcγRIII | β1-integrin mediated adhesion to type I collagen (integrin β1): without disrupting β1-mediated adhesion to collagen | FcγRI activation on effector cells (human FcγRI): lower levels of engagement

C#Cc1cccc(Nc2ncnc3cc(OCCOC)c(OCCOC)cc23)c1 [erlotinib]
tumor size [2]: initial reduction in tumor size, this is followed by an eventual tumor re-growth
